Measured values reported in doi:10.1101/2021.05.26.445723 (bioRxiv, 2021).

Target: GST-Sir3^SaID (S. cerevisiae, UniProt P06701 531-723)
Assay: pull-down

Chain of GST-Sir3^SaID (P06701 531-723): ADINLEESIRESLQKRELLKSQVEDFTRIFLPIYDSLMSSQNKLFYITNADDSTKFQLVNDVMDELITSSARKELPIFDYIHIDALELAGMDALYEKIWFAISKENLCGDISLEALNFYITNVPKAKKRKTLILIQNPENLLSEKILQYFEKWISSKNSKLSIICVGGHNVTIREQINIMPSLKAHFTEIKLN

- binding result: binds
B1: Sae2^C (purified) (domain or fragment, S. cerevisiae, UniProt P46946 173-345, looked up)
chain: ENPESTSPNLYKNVKDNFLFDFNTNPLTKRAWILEDFRPNEDIAPVKRGRRKLERFYAQVGKPEDSKHRSLSVVIESQNSDYEFAFDNLRNRSKSPPGFGRLDFPSTQEGNEDKKKSQEIIRRKTKYRFLMASNNKIPPYEREYVFKREQLNQIVDDGCFFWSDKLLQIYARC
